Data reported in patent US20110159003A1 (DOMANTIS, published 2011).

T1: human IL-4 (human, UniProt P05112 25-153, biotinylated in the RBA and on the Biacore chip)
T1 construct: also called interleukin-4; biotinylated-IL-4
T1 sequence (looked up): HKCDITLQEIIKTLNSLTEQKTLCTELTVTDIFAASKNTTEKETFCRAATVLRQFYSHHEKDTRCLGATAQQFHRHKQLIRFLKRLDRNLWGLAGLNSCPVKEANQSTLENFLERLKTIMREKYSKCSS


Assays:
[1] = target: variant IL-13 (R130Q) (human), P35225; experiment: cell-based or functional assay
[2] = target: T1, human IL-4; experiment: IL-4 RBA (ELISA), binder titrated; printed as potency
Excerpt: The wells were washed three times with 0.1% (v/v) Tween 20 in PBS, followed by three washes with PBS, before blocking with 2% (w/v) BSA in PBS. […] The reaction was stopped by the addition of HCl and the absorbance read at 450 nm.

[3] = target: T2, human IL-13 (human, UniProt P35225 35-146, limits assumed, biotinylated on the Biacore chip); experiment: IL-13 sandwich ELISA, binder titrated; printed as potency
T2 construct: also called interleukin-13; biotinylated IL-13
T2 sequence (P35225 35-146 limits assumed): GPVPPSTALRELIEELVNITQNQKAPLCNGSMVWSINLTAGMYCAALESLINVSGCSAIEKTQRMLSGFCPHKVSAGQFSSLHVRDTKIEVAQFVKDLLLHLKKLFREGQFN
Protocol: A MAXISORP™ plate (high protein binding ELISA plate, Nunc, Denmark) was coated overnight with 2.5 μg/ml coating antibody (Module Set, Bender MedSystems, Vienna, Austria), then washed once with 0.05% (v/v) Tween 20 in PBS before blocking with 0.5% (w/v) BSA 0.05% (v/v) Tween 20 in PBS. […] The plate was then incubated with TMB substrate (KPL, Gaithersburg, USA), and the reaction was stopped by the addition of HCl and the absorbance read at 450 nm.

[4] = target: T2, human IL-13; experiment: Dom10 RBA (text: IL-13 sandwich ELISA), binder titrated
[5] = target: T1, human IL-4; experiment: DOM9 RBA (IL-4 RBA), binder titrated
[6] = target: T1, human IL-4; experiment: cell-based or functional assay

Chain of variant IL-13 (R130Q) (human), P35225 (P35225 35-146, stated change not applied): as the sequence (P35225 35-146 limits assumed) above

Binder	EC50 [4] [nM]	IC50 [5] [nM]	further results
DOM10-176-535 (protein) VL: DIQMTQSPSSLSASVGDRVTITCRASQWIGPYLNWYQQKPGKAPKPLIYMGYWAPSGVPSRFSGSGSGTDFTLTISSLQPEDFATYYCQQDLYPPFTFGQGTKVEIKR	–	–	TF-1 proliferation IC50, variant IL-13 [1]: 7.8 nM
IgG:9-44-502×10-176-535 (bispecific antibody, V domains shown, not shown: a dimerising Fc or GST, IgG-like format from vector pDOM30 (heavy and light chain cassettes); also called dual specific IgG-like format) V domain 1: DIQMTQSPSSLSASVGDRVTITCRASQNINFWLRWYQQKPGKAPTLLIYDASRSQSGVPSRFSGSGSGTDFTLTISSLQPEDFATYYCQQDLMPPYTFGQGTKVEIKR V domain 2: DIQMTQSPSSLSASVGDRVTITCRASQWIGPYLNWYQQKPGKAPKPLIYMGYWAPSGVPSRFSGSGSGTDFTLTISSLQPEDFATYYCQQDLYPPFTFGQGTKVEIKR	–	–	IC50 [2]: 13 nM; IC50 [3]: 1 nM
DOM10-213 TVAAPS-DOM9-155-78 (bispecific antibody, from a related filing, part only) DIQMTQSPSSLSASVGDRVTITCRASQAIPWGLNWYQQKPGKAPKLLIYDVSSLQSGVPSRFSGSGSGTDFTLTISSLQPEDFATYYCQQDIHIPMTFGQGTKVEIKRTVAAPSDIQMTQSPSSLSASVGDRVTITCRASRHIGDWLHWYQQKPGKAPKLLIAWASTLDSGVPSRFSGSGSGTDFTLTISSLQPEDFATYYCLQEGWGPPTFGQGTKVEIKR	62	6.91	–
DOM10-53-316 (protein) VH: GVQLLESGGGLVQPGGSLRLSCAASGFIFAWYDMGWARQAPGKGLEWVSSIDWHGEVTYYADSVKGRFTISRDNSKNTLYLQMNSLRAEDTAVYYCATAEDEPGYDYWGQGTLVTVSS	–	–	TF-1 proliferation IC50, variant IL-13 [1]: 0.52 nM
DOM10-208-TVAAPS-DOM9-155-78 (bispecific antibody, from a related filing, part only) DIQMTQSPSSLSASVGDRVTITCRASSPITDGLAWYQQKPGKAPKLLIDTGSRLQSGVPSRFSGSGSGTDFTLTISSLQPEDFATYYCRQGAMGSYTFGQGTKVEIKRTVAAPSDIQMTQSPSSLSASVGDRVTITCRASRHIGDWLHWYQQKPGKAPKLLIAWASTLDSGVPSRFSGSGSGTDFTLTISSLQPEDFATYYCLQEGWGPPTFGQGTKVEIKR	4240	8.18	–
DOM10-224 TVAAPS-DOM9-155-78 (bispecific antibody, from a related filing, part only) DIQMTQSPSSLSASVGDRVTITCRASPNIAVDLAWYQQKPGKAPKLLIRGVSRLQSGVPSRFSGSGSGTDFTLTISSLQPEDFATYYCRQGAMGSYTFGQGTKVEIKRTVAAPSDIQMTQSPSSLSASVGDRVTITCRASRHIGDWLHWYQQKPGKAPKLLIAWASTLDSGVPSRFSGSGSGTDFTLTISSLQPEDFATYYCLQEGWGPPTFGQGTKVEIKR	–	12.5	–
DOM10-215 TVAAPS-DOM9-155-78 (bispecific antibody, from a related filing, part only) DIQMTQSPSSLSASVGDRVTITCRASQNIFADLNWYQQKPGKAPKLLIYMGSRLQSGVPSRFSGSGSGTDFTLTISSLQPEDFATYYCQQDYKFPLTFGQGTKVEIKRTVAAPSDIQMTQSPSSLSASVGDRVTITCRASRHIGDWLHWYQQKPGKAPKLLIAWASTLDSGVPSRFSGSGSGTDFTLTISSLQPEDFATYYCLQEGWGPPTFGQGTKVEIKR	10.8	6.65	–
DOM9-44-502 (other) VL: DIQMTQSPSSLSASVGDRVTITCRASQNINFWLRWYQQKPGKAPTLLIYDASRSQSGVPSRFSGSGSGTDFTLTISSLQPEDFATYYCQQDLMPPYTFGQGTKVEIKR	–	–	average inhibition of HDM induced PBMC proliferation at 100 nM dAb [6]: 38%
DOM9-112-22 (other) VH: EVQLLESWGGLVQPGGSLRLSCAASGFTFRNYGMAWVRQAPGKGLEWISWIDASGTETYYADPVKGRFTISRDNSKNTLYLQMNSLRAEDTAVYYCAKSLGRFDYWGQGTLVTVSS	–	–	average inhibition of HDM induced PBMC proliferation at 100 nM dAb [6]: 23%
